B1: Arl15-AL-Myc [human] / GST-Smad4 [not stated] (parent)
chain 1: MSDLRITEAFLYMDYLCFRALCCKGPPPARPEYDLVCIGLTGSGKTSLLSKLCSESPDNVVSTTGFSIKAVPFQNAILNVKELGGLDNIRKYWSRYYQGSQGVIFVLDSASSEDDLEAARNELHSALQHPQLCTLPFLILANHQDKPAARSVQEIKKYFELEPLARGKRWILQPCSLDDMDALKDSFSQLINLLEEKDHEAVRM
chain 2: MDNMSITNTPTSNDACLSIVHSLMCHRQGGESETFAKRAIESLVKKLKEKKDELDSLITAITTNGAHPSKCVTIQRTLDGRLQVAGRKGFPHVIYARLWRWPDLHKNELKHVKYCQYAFDLKCDSVCVNPYHYERVVSPGIDLSGLTLQSNAPSSMMVKDEYVHDFEGQPSLSTEGHSIQTIQHPPSNRASTETYSTPALLAPSESNATSTANFPNIPVASTSQPASILGGSHSEGLLQIASGPQPGQQQNGFTGQPATYHHNSTTTWTGSRTAPYTPNLPHHQNGHLQHHPPMPPHPGHYWPVHNELAFQPPISNHPAPEYWCSIAYFEMDVQVGETFKVPSSCPIVTVDGYVDPSGGDRFCLGQLSNVHRTEAIERARLHIGKGVQLECKGEGDVWVRCLSDHAVFVQSYYLDREAGRAPGDAVHKIYPSAYIKVFDLRQCHRQMQQQAATAQAAAAAQAAAVAGNIPGPGSVGGIAPAISLSAAAGIGVDDLRRLCILRMSFVKGWGPDYPRQSIKETPCWIEIHLHRALQLLDEVLHTMPIADPQPLD

This assay covers variants of B1. In words: GST pull-down, immunoblot band quantification. The conditions noted are these: with GST-Smad4; HeLa cell lysates; bead-immobilized GST-Smad4; parent: 100. For orientation: A western blot detects proteins with antibodies after separation by electrophoresis.
With chain 1 Y96F, the percent of parent turned out to be 47.

As to chain 1 E82K, the percent of parent was 95. On to chain 1 R90L, for which the percent of parent is 22. To chain 1 R95C belongs 38.

These data come from PMC9352346.
